A short description of this data set: soluble on expression in E. coli; label from the status in PepcDB or PDB records.
As to “MANDEQQQLLNKIVRDDSQDKQVLLMINGAAGTGKTFLIKLIENSMNRSVRKRVVLMTGSTGKAAKAIGGRTLHCTIGLPNEKPEDLERLKYQAFICVTTRLIIIDEITLLASWHLDATDMVLKRTPKRTDALFGGLSIILVGDLRQLNLGGWRGKKQIDTVFIKVGGYPDPISCQNVCD”, the “soluble on expression in E. coli” value is given as “not soluble”.

In the case of “MDLIGLRIRNIRKIKQLTLKEAAKGIISVPYLANIENGVKVASFETLMHIAKRLEIPEEALLIGNEDLNKELLQELKQIFDLLVFSNTKEAGDRLDQIAANVDLLCESPVIELSFYWLQAGFYYKTWEFSKAREIERKYLNSNEKRVVESFPPDLLSYYYYGQAVKHSHATCDYQLAVEYWEKSIDLTDKAAFQVVFQVGLCINYICLNNYEPALKHIECAWNLIKRFPSKDQERITAILYLYGYINFQIGFMTEAKRKFEEVLVFFNMYPEAKTMYSFLVRFKLAEIERVEGNHELFDEKIVCLYEELMAHEASEIGFNNNDYLVITELMVIFAEQGSVLEASNLLAIINKVTEQVMEINFFVTYTETLLLYHQNKQSSYEKKMLDLLKKIDESNDPALIERVKKHASKHFADSTKYKMAYNILA”, the “soluble on expression in E. coli” value is listed as “not soluble”.

In the case of “MRSGQMEIIIGWLYPQLMSTYGDRGNVIIIERRAQWREYNVTVLPLDQNSTPDDLKSVDVIVGGGAQDRQQEIVMRDLQGAKADAMREKIENGTPGVFTCGSPQLLGHYYEPGFGQRIEGLGILDLVSIHPGENTKRCIGNLVIEVTASRFAQELEAMTGTKPYLVGFENHGGRTKLGKVEALGRVVYGLGNNGEDGTEGAFYQNAIATYSHGPLLPKNPFVADWLIQTALRLKYQEEIQLSPLNDTLAMQGREAMFKRLKVNLPLAGRI”, the “soluble on expression in E. coli” value is on record as “not soluble”.

As to “GHMLVMRPAQAADLPQVQRLAADSPVGVTSLPDDAERLRDKILASEASFAAEVSYNGEESYFFVLEDSASGELVGCSAIVASAGFSEPFYSFRNETFVHASRSLSIHNKIHVLSLCHDLTGNSLLTSFYVQRDLVQSVYAELNSRGRLLFMASHPERFADAVVVEIVGYSDEQGESPFWNAVGRNFFDLNYIEAEKLSGLKSRTFLAELMPHYPIYVPLLPDAAQESMGQVHPRAQITFDILMREGFETDNYIDIFDGGPTLHARTSGIRSIAQSRVVPVKIGEAPKSGRPYLVTNGQLQDFRAVVLDLDWAPGKPVALSVEAAEALGVGEGASVRLVAVGS”, the “soluble on expression in E. coli” value was “soluble”.

Consider “MGSDKIHHHHHHAWGAKDAEVGKAWKGWKKGQFQIHLIYTGVSESMFLIFPDGTTMLLDCGDHNAVGRGKLAVPVLPNPDRHAGEWISRYVRRVNPQKDYVDYMMLTHYHSDHGGNNKFYARKETRDGKDYYLSGFSQAAEYLTFGKAFDRCWPDYNDPLPLTQEAADAFEHMKDFYDYMLAHKKMEIEKFCLGETNQIAMKKDATAYPGFSVRNICANGRIADKEGNIRDLYAERKKSNPVKFSENGMSLGMIFTYGDFKFYTAGDFSDGWELPNGKRFEIEDAIADVVEPVSVAKINHHGHKSMTDKLVAALRPRVVVNNVWDQLHTLPSVMERFYNRNLYPGERIVCPTVFPAERRAEDAGQPWLDILNPSSFDAGHVIVNVEEGGKDYSVTYLTANDESMTVKSVMRFKS”, for which the “soluble on expression in E. coli” value is reported as “not soluble”.

For “MTDKTIAFSLLDLAPIPEGSSAREAFSHSLDLARLAEKRGYHRYWLAEHHNMTGIASAATSVLIGYLAANTTTLHLGSGGVMLPNHSPLVIAEQFGTLNTLYPGRIDLGLGRAPGSDQRTMMALRRHMSGDIDNFPRDVAELVDWFDARDPNPHVRPVPGYGEKIPVWLLGSSLYSAQLAAQLGLPFAFASHFAPDMLFQALHLYRSNFKPSARLEKPYAMVCINIIAADSNRDAEFLFTSMQQAFVKLRRGETGQLPPPIQNMDQFWSPSEQYGVQQALSMSLVGDKAKVRHGLQSILRETDADEIMVNGQIFDHQARLHSFELAMDVKEELLG”, the “soluble on expression in E. coli” value is reported as “soluble”.

With “MAHHHHHHMGTLEAGQQGPGSMSKLTVVASPLAPEAVGAYSQAIICNGMVYCSGQIGLDRKTGDFAGKTIEEQSKQVMTNLKYVLEEAGSSMDKVVKTTCLLADIKDFGVFNGIYAEAFGNHKPARACFAAAALPKGALVEVECIATL”, the “soluble on expression in E. coli” value is given as “soluble”.

In the case of “MKIHHIGPMGVNPYQRQLAKTERLAAEKAPRDQVEISKEAKELQEAASWEQARQAKLEELRQQIENGAYQVDPRAVAKRMIEYYRNHR”, the “soluble on expression in E. coli” value is “not soluble”.

For “IQQFNYGVRLVMSDNMQKILEYPNKTLSLGEKYYTGKTIGEIWGYKTIGIAQTQEEMDKHLANGGKPNWGSAWGAGDIMYANIDGKDGVNSGANTVNDHGDLKIIGNSTPRYNFGLTLDGSWKGLDFSLFIQGVMKRDYMLDGPYFWGANGGMWQSCVFKEHLDYWRPEGDPLGANTNAYYPKPYFSSNKNQKTQSGYLQNAAYCRLKNAQIGYTLPKAWTKKAAMESVRVYVSGDNLLTISGISDIFDPETLGGDWGPGKLYPLQRTISIGLNVNF”, the “soluble on expression in E. coli” value was “not soluble”.

“SAPALLTAAQRTMLAQVGACNSHLTSDENMAINELRLHKPRLPKDTWFFTDPNKDPDDVVTYTLGKQLQAEGFVHITDVVATLGDAEVRSQRAEMAKGVFNKLGLHDVHVSRGRDYAMNSLQSKEHAKFLLEGHALRAGPGEIHRDSLQDMSRRLARAPHGVGIVVIAGMSDINALITTCPDMVRERVDDITIMGGVEPLKDADGFVQPDARAYNNATDMDAARSLYRKAQELGIPLRIVTKEAAYKTAVSPSFYEGIAGSGHPVGHYLRDVQKSALKGLWEGIQAGLLPGLDDSWFFRTFMPNAQIEAAQLDKNKESSFEDIWPKVTKLNLYDPLTLLASVPGAAKLLFKPKAIHTEGFGVVEQVGPDDVTHPEKAKLLMSALAKSALVQSTVAPD”: the “soluble on expression in E. coli” value is reported as “soluble”.

Take “AEPDQAPELNEAQREAVDTIGALSAFQPVLLHGVTGSGKTEVYLHAAARVLQAGRQVLLMVPEINLTPQLEGALRARLEALVGPQGVAILHSGLADGERVQAWARAQRGQARLLLGTRMSIFAPLPELGLIVVDEEHDPSYKQQEGLRYSARDLAIWRARDLDIPVVLGSATP”: the “soluble on expression in E. coli” value was “not soluble”.

For “ATGDTAATAAPAKAEKTAGSVLRDAKRVIIVPGYGMALAQAQHQVRQLADKLTANGTEVRYAIHPVAGRMPGHMNVLLCEADVPYDQLFEMDAINGDFAQTDAVVVIGANDVMNPAARNAEGTPIYGMPVLNVDDAPEVIICNFDLKPGYAGVDNPLYTRATGVFLKLGDAKESLAEIMKEMDIA”, the “soluble on expression in E. coli” value is “not soluble”.

Turning to “MINLPAEGHVNPTLSLVKAFTERGDHVHYITTEHFKGRIEDLGATVYTHPDLLKDISIDTETSYGLNSFFHVHVQTSLYILEITKQLCESINFDFVIYDIFGAGELVKEYLQIPGIVSSPIFLIPTEFLETLPFHPNAEIPFQPDEISEQLLYRMEHEFGVKPKNNLQFMHNKGDITLVYTSRYFQPNSDLFGENNIFIGPSISKRKTNVEFPLELLKGKKVIYISMGTLLEGLEPFFNTCIDTFSDFKGVVVMAIGDRNDRSKIKKAPDNFIIASYVLQSEILNEADVFITHGGMNSVHDAIYFNVPFVIIPHDKDQPMIAQRLTELEAAHRLLKEHVNVQSLKEAVTDVLLNEKYKHGIRKLKDSFLQCGGAKEAISVIKSLLNK”, the “soluble on expression in E. coli” value was “not soluble”.

For “MSKTHLTEQKFSDFALHPKVVEALEKKGFHNCTPIQALALPLTLAGRDVAGQAQTGTGKTMAFLTSTFHYLLSHPAIADRKVNQPRALIMAPTRELAVQIHADAEPLAEATGLKLGLAYGGDGYDKQLKVLESGVDILIGTTGRLIDYAKQNHINLGAIQVVVLDEADRMYDLGFIKDIRWLFRRMPPANQRLNMLFSATLSYRVRELAFEQMNNAEYIEVEPEQKTGHRIKEELFYPSNEEKMRLLQTLIEEEWPDRAIIFANTKHRCEEIWGHLAADGHRVGLLTGDVAQKKRLRILDEFTRGDLDILVATDVAARGLHIPAVTHVFNYDLPDDCEDYVHRIGRTGRAGASGHSISLACEEYALNLPAIETYIGHSIPVSKYNPDALMTDLPKPLRLTRPRTGNGPRRTGAPRNRRRSG”, the “soluble on expression in E. coli” value is recorded as “soluble”.

The values above are taken from the DeepSol protein solubility set.
